Experimental data published in patent US20230391888A1 (Sanofi, published 2023).

T1: human CD123-Fc-His fusion protein (internal source) (human, UniProt P26951 19-305)
T1 construct: not shown: Fc and His tag
T1 sequence (looked up): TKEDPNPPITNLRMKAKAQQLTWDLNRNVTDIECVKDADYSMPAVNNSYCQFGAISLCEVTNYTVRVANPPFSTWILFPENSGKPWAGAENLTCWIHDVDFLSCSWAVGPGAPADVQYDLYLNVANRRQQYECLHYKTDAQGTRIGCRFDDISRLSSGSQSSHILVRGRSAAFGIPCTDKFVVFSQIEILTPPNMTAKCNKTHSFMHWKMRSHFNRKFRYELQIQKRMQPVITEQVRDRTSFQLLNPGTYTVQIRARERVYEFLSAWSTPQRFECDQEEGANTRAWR

B1: anti-CD3ε × anti-CD123 Wild Type (ID 33) (bispecific antibody)
light 1: not shown
heavy 1: not shown
heavy 2: EVQLQQSGPELVKPGASVKMSCKASGYTFTDYYMKWVKQSHGKSLEWIGDIIPSNGATFYNQKFKGKATLTVDRSSSTAYMHLNSLTSEDSAVYYCTRSHLLRASWFAYWGQGTLVTVSAASTKGPSVFPLAPSSKSTSGGTAALGCLVKDYFPEPVTVSWNSGALTSGVHTFPAVLQSSGLYSLSSVVTVPSSSLGTQTYICNVNHKPSNTKVDKKVEPKSCDKTHTCPPCPAPEAAGGPSVFLFPPKPKDTLMISRTPEVTCVVVDVSHEDPEVKFNWYVDGVEVHNAKTKPREEQYNSTYRVVSVLTVLHQDWLNGKEYKCKVSNKALPAPIEKTISKAKGQPREPQVCTLPPSRDELTKNQVSLSCAVKGFYPSDIAVEWESNGQPENNYKTTPPVLDSDGSFFLVSKLTVDKSRWQQGNVFSCSVMHEALHNRFTQKSLSLSPG
light 2: DFVMTQSPSSLTVTAGEKVTMSCKSSQSLLNSGNQKNYLTWYLQKPGQPPKLLIYWASTRESGVPDRFTGSGSGTDFTLTISSVQAEDLAVYYCQNDYSYPYTFGGGTKLEIKRTVAAPSVFIFPPSDEQLKSGTASVVCLLNNFYPREAKVQWKVDNALQSGNSQESVTEQDSKDSTYSLSSTLTLSKADYEKHKVYACEVTHQGLSSPVTKSFNRGEC
notes: Wild type bispecific IgG (first anti-CD3ε arm)
B2: anti-CD3ε-dsTrasKO2 × anti-CD123 (ID 35) (bispecific antibody)
light 1: not shown
heavy 1: not shown
heavy 2: B1 heavy 2
light 2: B1 light 2
notes: CD3ε arm is the pseudoFab (dsTrasKO2); also called anti-CD3E-dsTrasKO2 × anti-CD123
B3: anti-CD3ε × anti-CD123 Wild Type (ID 36, alternative anti-CD3ε binding domain) (bispecific antibody)
light 1: DIVMTQTPLSLSVTPGQPASISCKSSQSLVHENLQTYLSWYLQKPGQSPQSLIYKVSNRFSGVPDRFSGSGSGTDFTLKISRVEAEDVGVYYCGQGTQYPFTFGSGTKVEIKRTVAAPSVFIFPPSDEQLKSGTASVVCLLNNFYPREAKVQWKVDNALQSGNSQESVTEQDSKDSTYSLSSTLTLSKADYEKHKVYACEVTHQGLSSPVTKSFNRGEC
heavy 1: not shown
heavy 2: B1 heavy 2
light 2: B1 light 2
B4: anti-CD3ε × anti-CD123-dsTrasKO2 (ID 34) (bispecific antibody)
light 1: not shown
heavy 1: not shown
heavy 2: EVQLQQSGPELVKPGASVKMSCKASGYTFTDYYMKWVKQSHGKSLEWIGDIIPSNGATFYNQKFKGKATLTVDRSSSTAYMHLNSLTSEDSAVYYCTRSHLLRASWFAYWGQGTLVTVSAGGGGSGGGGSEVQLVESGGGLVQPGGSLRLSCAASGFNIKDTYIHWVRQAPGKCLEWVAEIYPTNGYTEYADSVKGRFTISADTSKNTAYLQMNSLRAEDTAVYYCSRWGGDGFYAMDYWGQGTLVTVSSDKTHTCPPCPAPEAAGGPSVFLFPPKPKDTLMISRTPEVTCVVVDVSHEDPEVKFNWYVDGVEVHNAKTKPREEQYNSTYRVVSVLTVLHQDWLNGKEYKCKVSNKALPAPIEKTISKAKGQPREPQVCTLPPSRDELTKNQVSLSCAVKGFYPSDIAVEWESNGQPENNYKTTPPVLDSDGSFFLVSKLTVDKSRWQQGNVFSCSVMHEALHNRFTQKSLSLSPG
light 2: not shown

Molecular target: T1, human CD123-Fc-His fusion protein …
Assay: SPR, Biacore 8K; CD123-Fc-His captured by anti-His, antibody as analyte, 1:1 Langmuir fit
Procedure: Binding of antigens to the antibody constructs was measured using surface plasmon resonance (SPR) with a BIAcore 8K instrument (GE Healthcare) with HBS-EP+ buffer (GE Healthcare). For binding kinetics and affinity determination human CD3εδ-Fc-His and human CD123-Fc-His fusion proteins (both from internal source) were used as antigens. The anti-His capture antibody (His capture kit, GE Life Sciences) was immobilized via primary amine groups (11000 RU) on a research grade CM5 chip (GE Life Sciences) using standard procedures. Antigens were captured by the anti-His capture chip surface at a flow rate of 10 μL/min for 90 sec to reach antibody binding levels between 10 and 30 RU. […] Dissociation was measured at 30 μL/min by injection of HBS-EP+ buffer for 1200 sec. The chip surface was regenerated by inject of regeneration buffer (His capture kit, GE Life Sciences). Sensorgrams were double referenced with a blank chip surface and H BS-EP+ buffer blanks. Data were fitted with a 1:1 Langmuir binding model for determination of kinetic and affinity constants ka, kd and KD using Biacore 8K Evaluation software v1.11.7442 (GE Healthcare).

| Binder | Kd |
| --- | --- |
| B1 | 0.212 nM |
| B2 | 0.257 nM |
| B3 | 0.352 nM |
| B4 | 0.239 nM |
